Target: HER2 (human epidermal growth factor receptor 2) (Homo sapiens, UniProt P04626 P04626:23-652)
Assay: electrochemical SWV aptasensor; 0.1-200 ng/mL HER2 in 10 mM PBS pH 7.4, 1 h; MCH/BSA blocked; LOD 0.008 ng/mL; also detected in spiked undiluted human serum; protein source not stated
Details: label: immobilized via thiol on gold nanostructured laser-scribed graphene electrode
Procedure: The concentrated Mercaptohexanol (MCH) solution was first prepared in ultrapure water and then further diluted in 10 mM PBS (pH 7.4). 4 μM of DNA aptamer 410 was mixed with 20 μM of MCH 412 prepared with 10 mM PBS (pH 7.4) to obtain a homogenized solution. As the next step, 6 μL from this mixture was placed in step 402 onto the LSG-AuNS modified working electrode 104 and incubated for 16 h, as shown in FIG. 4B. The MCH 412 covers a first part of the surface of the nanostructure 110 while the aptamer 410 covers a second part of the surface of the nanostructure 110. However, a third part of the surface of the nanostructure 110 is not covered by either of the MCH or the aptamer. The LSG-AuNS electrode surface was cleaned with 10 mM PBS (pH 7.4) to remove the excess of aptamer molecules 410 and MCH 412. The aptasensor was incubated in step 405 in 0.1 mg/mL of BSA solution 414 in 10 mM PBS (pH 7.4) for 45 min to cover a third part of the surface of the nanostructure 110, to reduce non-specific adsorption, as illustrated in FIG. 4C. In one application, the sum of the surfaces of the first to third parts covers the entire surface of the nanostructure 110. However, in another application, the sum of the first to third parts cover less than the entire surface of the nanostructure 110. Finally, the aptamer modified electrode 104 was washed with 10 mM PBS (pH 7.4) for at least five times. […]

B1: thiol-modified anti-Her-2 DNA aptamer (APT) (ssDNA)
DNA: AACCGCCCAAATCCCTAAGAGTCTGCACTTGTCATTTTGTATATGTATTTGGTTTTTGGCTCTCACAGACACACTACACACGCACA
modifications: 5'-ThiC6 (thiol C6 linker)
binding result: binds

From US20260104381, “ELECTRODEPOSITED METAL MODIFIED LASER SCRIBED GRAPHENE ELECTRODE AND METHOD” (KING ABDULLAH UNIVERSITY OF SCIENCE AND TECHNOLOGY, published 2026)
